Here are results for 2 substances from article PMC2603627.

In the experiment the target is GST-tagged p63RhoGEF (UniProt Q86VW2). The experiment can be described thus: pull-down.
Sequence of UniProt Q86VW2 (Q86VW2 whole entry): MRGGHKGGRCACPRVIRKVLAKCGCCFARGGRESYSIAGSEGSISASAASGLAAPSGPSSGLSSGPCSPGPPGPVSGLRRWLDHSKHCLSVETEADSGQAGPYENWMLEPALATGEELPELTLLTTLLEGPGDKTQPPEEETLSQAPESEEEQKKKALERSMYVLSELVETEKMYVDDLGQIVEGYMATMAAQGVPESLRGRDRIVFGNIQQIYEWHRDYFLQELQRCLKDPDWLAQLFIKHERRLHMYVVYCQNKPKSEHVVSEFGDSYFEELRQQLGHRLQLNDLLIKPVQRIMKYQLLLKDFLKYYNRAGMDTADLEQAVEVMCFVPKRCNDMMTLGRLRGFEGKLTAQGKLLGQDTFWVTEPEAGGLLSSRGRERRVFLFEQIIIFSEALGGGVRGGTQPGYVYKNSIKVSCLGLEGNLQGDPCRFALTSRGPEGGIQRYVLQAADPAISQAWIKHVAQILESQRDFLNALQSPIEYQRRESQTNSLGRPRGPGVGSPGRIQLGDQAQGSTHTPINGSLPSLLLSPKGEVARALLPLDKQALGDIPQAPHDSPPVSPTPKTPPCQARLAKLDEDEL

In turn, “FLAG-MLK3^KR (kinase-deficient, ATP-binding point mutant of MLK3) (from UniProt Q16584 1-847) (enzyme)” had a % associated MLK3/input MLK3 after overnight incubation of 44%.

“FLAG-MLK3^KR/T277D,S281D (from UniProt Q16584 1-847) (enzyme)”: the amount in GST-p63RhoGEF complexes relative to FLAG-MLK3^KR was determined as 2 fold.
